In patent US20260274985A1 (MYTHIC THERAPEUTICS, published 2026):

Target: T1, Human TROP2 Protein, His Tag (Acro Biosystems) (human, UniProt P09758 27-274)
T1 construct: not shown: His tag
T1 sequence (looked up): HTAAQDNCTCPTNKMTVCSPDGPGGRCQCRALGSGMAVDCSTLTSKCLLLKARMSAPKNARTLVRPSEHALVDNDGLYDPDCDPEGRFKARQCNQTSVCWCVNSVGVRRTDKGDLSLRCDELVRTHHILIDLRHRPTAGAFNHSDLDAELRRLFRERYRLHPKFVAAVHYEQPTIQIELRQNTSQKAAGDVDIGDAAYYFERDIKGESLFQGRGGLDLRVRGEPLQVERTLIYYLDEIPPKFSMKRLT
Experiment: Octet BLI, IgG on anti-human Fc sensor; 3 = No binding

B1: MYT12395 (antibody, V domains shown)
VH: QVQLVQSGAEVKKPGASVKVSCKASGYTFTTAGMQWVRQAPGQGLEWMGWINTHSGVPKYAEDFKGRVTISADTSTSTAYLQLSSLKSEDTAVYYCARSGFGSSYWYFDVWGQGTLVTVSS
VL: DIQMTQSPSSLSASVGDRVTITCKASQDVSTAVAWYQQKPGKAPKLLIYSAHYRYTGVPSRFSGSGSGTDFTLTISSLQPEDFAVYYCHQHYITPLTFGQGTKLEIK
notes: datopotamab VL 52, 89 substituted
- binding result: no binding (tested: 50 nM TROP2)
